Test results reported in patent US12338268B2, “Compositions and methods for treating protein aggregation-associated diseases” (The Board of Trustees of the Leland Stanford Junior …, priority 2019, dated 2025).
Entries after “also recorded” stand apart in the source; their conditions may differ.

B1: human NAC: purified recombinant human nascent polypeptide-associated complex (αNAC and βNAC 1:1) (protein)
chain 1: MTGSTETRQKEVKEPQVDVSDDSDNEAVEQELTEEQRRVAEAAGLGDHIDKQAKQSRSEKKARKLFSKLGLKQVTGVSRVCIRKSKNILFVINKPDVFKSPGSDTYIIFGEAKIEDLTQHAQMSAIENLKPTREAPQLKTVEEDENEDVEEDSTGIEEKDIELVISQANTTRNKAIRALKEADNDIVNAIMSLTM
chain 2: MMDSKAIAERIKKLQAQQEHVRIGGKGTPRRKKKVIHKTAAADDKKLQSNLKKLSVTNIPGIEEVNMIKDDGTVIHFNNPKVQTSVPANTFSVTGSADNKQITEMLPGILNQLGPESLTHLKKLANNVTKLGPDGKGEDEDVPELVGDFDAASKNETKADEQ
B2: ApiCCT1-bNAC: fusion protein comprising the apical domain of CCT1 fused with the bNAC N-terminal sequence at its C-terminus (protein)
chain: MGVPGYALNCTVASQAMPKRIAGGNVKIACLDLNLQKARMAMGVQINIDDPEQLEQIRKREAGIVLERVKKIIDAGAQVVLTTKGIDDLCLKEFVEAKIMGVRRCKKEDLRRIARATGATLVSSMSNLEGEETFESSYLGLCDEVVQAKFSDDECILIKGTSKAAAAALEGGSGGSMKETIMNQEKLAKLQAQVRIGGKGTARRKKKVVHRTAT

How the values were obtained:
[1] = target: T1, Aβ40 (Homo sapiens, UniProt P05067); assay: Thioflavin T fluorescence assay of Aβ40 aggregation; format: biochemical; details: equimolar NAC variant and Aβ40 (32 μM FIG. 4C; 18 μM FIG. 12C), 37° C., 20 h
T1 construct: Aβ40 peptide was expressed and purified as described previously; made in house; host or cells: E. coli BL21 (DE3)
Protocol: Lyophilized Aβ40 was resuspended at 320 μM in 20 mM sodium phosphate pH 7.4, 0.2 mM EDTA, 0.01% (w/v) sodium azide and stored on ice. The NAC proteins were diluted to 100 μM in storage buffer (20 mM sodium phosphate pH 7.5, 25 mM NaCl, 6 mM MgCl2, 2 mM β-mercaptoethanol, 5% (v/v) glycerol) and buffer exchanged into 20 mM sodium phosphate pH 7.4, 0.2 mM EDTA, 0.01% (w/v) sodium azide, 1× complete mini protease inhibitor, EDTA free (Roche) by means of ZebaSpin 7 kDa MWCO spin columns (Thermo Scientific). Samples were prepared that contained equimolar concentrations of Aβ40 and NAC variants. Thioflavin T was added to a final concentration of 10 μM. The samples were transferred to a 96 well half-area clear bottom microplate (Corning GmbH, Wiesbaden, Germany), with 95 μL of sample in each well. The fluorescence (excitation: 440 nm, emission: 480 nm) was measured using a BMG Omega plate reader (BMG Labtech) incubating samples at 37° C., quiescently.

[2] = target: GdmCl-denatured firefly luciferase (Photinus pyralis, UniProt P08659); assay: Luciferase refolding assay; format: biochemical
[3] = target: T2, full-length Ataxin-3 (AtxQ78) (Homo sapiens, UniProt P54252, INS305QQQQQQQQQQQQQQQQQQQQQQQQQQQQQQQQQQQQQQQQQQQQQQQQQQQQQQQQQQQQQQQQ); assay: Filter trap aggregation assay of AtxQ78; format: biochemical; details: equimolar (1×) NAC, 37° C.
T2 construct: full-length Ataxin-3 harboring a stretch of 78 glutamines (AtxQ78); made in house
Protocol: (§1) Mutant Huntingtin and PolyQ51 aggregation reactions were performed at concentration 3 μM of mHttQ51, 0.044 Units/μl acTEV protease (Invitrogen, Carlsbad, CA, USA), and respective concentrations of Ovalbumin (Sigma) or purified NAC chaperone variants. Aggregation was conducted in TEV reaction buffer (Invitrogen) and incubated at 30° C. AtxQ78 was buffer exchanged into TEV reaction buffer using 7K MWCO Zeba Spin Desalting Columns (Thermo Fisher) to initiate aggregation. AtxQ78 aggregation reactions were performed at 30 μM of Ataxin-3 in reaction buffer (20 mM sodium phosphate pH 7.5, 25 mM NaCl, 6 mM MgCl2, 2 mM DTT, 5% (v/v) glycerol) and incubated at 37° C. Samples at varied time-points were then taken and combined in a 1:1 ratio with a 4% (w/v) SDS, 100 mM DTT solution, boiled for 5 min at 95° C., and stored at −20° C. Samples were then filtered through a 0.22 μm cellulose acetate membrane (Whatman) and washed with 0.1% (w/v) SDS. Membrane was probed using an S-tag antibody (Abcam) for mHttQ51 and PolyQ51, and with a His-tag antibody (Abcam) for AtxQ78.

[4] = target: T1, Aβ40; assay: Transmission electron microscopy of Aβ40 reaction endpoint; format: biochemical; details: reaction endpoint at 20 h, equimolar NAC
Protocol: After 20 h, samples were taken from the Thioflavin T plate and fixed on carbon coated copper grids, made in house. The samples were negative stained with 2% (w/v) uranyl acetate. The samples were imaged on a JEOL 1400 TEM at the Astbury structural biology laboratory, University of Leeds.

[5] = test system: PolyQ51; assay: In vitro filter trap aggregation assay of PolyQ51; format: biochemical; details: 5× molar excess, SDS-insoluble aggregates
Protocol: as §1

[6] = target: T3, mutant Huntingtin exon 1 (mHttQ51) (Homo sapiens, UniProt P42858, INS38QQQQQQQQQQQQQQQQQQQQQQQQQQQQQQQ); assay: In vitro filter trap aggregation assay of mutant Huntingtin exon 1; format: biochemical
T3 construct: mutant Huntingtin exon 1 containing a pathogenic stretch of 51 glutamines (mHttQ51); GST (N, cleaved yes); made in house; host or cells: E. coli Rosetta 2(DE3) pLysS
Protocol: as §1

[7] = target: T4, AtxQ78 (Homo sapiens, UniProt P54252, INS305QQQQQQQQQQQQQQQQQQQQQQQQQQQQQQQQQQQQQQQQQQQQQQQQQQQQQQQQQQQQQQQQ); assay: Chemical crosslinking (BS3) and mass spectrometry of NAC-AtxQ78 complexes; format: binding; details: NAC and AtxQ78 1:1, BS3 crosslinker, LC-MS
T4 construct: full-length Ataxin-3 harboring a stretch of 78 glutamines (AtxQ78); made in house
Protocol: For crosslinking AtxQ78 was buffer exchanged into 10 mM sodium phosphate (pH 7.2) and added to NAC at a 1:1 ratio (20 μM NAC+20 μM AtxQ78). A 1:1 mixture of BS^3-d^0 and BS^3-d^4 was added to the proteins at 20× and 50× molar excess and the reaction allowed to proceed at room temperature for 1 hour before quenching with the addition of 50 mM Tris-Cl (pH 7.5). Samples were diluted with 2× loading buffer and separated on Tris-tricine gels followed by staining with InstantBlue (Expedeon).
Gel pieces containing the crosslinked complexes were washed with 25 mM ammonium bicarbonate (pH 7.8) for 1 h with shaking. The solution was removed and the pieces destained three times with 25 mM ammonium bicarbonate in 60% acetonitrile. Gel pieces were dehydrated with 100% acetonitrile for 10 min and left to air-dry in a laminar flowhood for 1 h. Rehydration of the gel pieces was achieved by adding 0.1 mg/ml trypsin solution and incubating the samples on ice for 30 min. Excess trypsin was removed and the samples were incubated at 37° C. and 1000 rpm overnight. Peptides were extracted from the gel using 3 washes with 60% acetonitrile/5% formic acid. The extracts were pooled and concentrated using a SpeedVac before being analyzed using a nanoACQUITY LC-system coupled to a Synapt HDMS G2Si mass spectrometer. […]

[8] = test system: HttQ44-BodipyTMR; assay: Fluorescence quenching assay of HttQ44-BodipyTMR aggregation; format: biochemical; details: titrations of chaperones, 24-hour time period
Excerpt: FIGS. 17A-17B show a fluorescence quenching assay as a reporter for early events in Htt aggregation.
A fluorescence quenching assay was used to monitor aggregation of HttQ44-BodipyTMR with titrations of various chaperones over a 24-hour time period.

T3 sequence (P42858 with tags, fused parts or gaps with the stated changes limits assumed): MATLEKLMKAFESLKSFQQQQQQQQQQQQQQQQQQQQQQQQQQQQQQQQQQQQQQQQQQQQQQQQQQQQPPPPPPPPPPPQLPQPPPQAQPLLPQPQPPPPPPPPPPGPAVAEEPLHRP
Chain of GdmCl-denatured firefly luciferase (P08659 whole entry): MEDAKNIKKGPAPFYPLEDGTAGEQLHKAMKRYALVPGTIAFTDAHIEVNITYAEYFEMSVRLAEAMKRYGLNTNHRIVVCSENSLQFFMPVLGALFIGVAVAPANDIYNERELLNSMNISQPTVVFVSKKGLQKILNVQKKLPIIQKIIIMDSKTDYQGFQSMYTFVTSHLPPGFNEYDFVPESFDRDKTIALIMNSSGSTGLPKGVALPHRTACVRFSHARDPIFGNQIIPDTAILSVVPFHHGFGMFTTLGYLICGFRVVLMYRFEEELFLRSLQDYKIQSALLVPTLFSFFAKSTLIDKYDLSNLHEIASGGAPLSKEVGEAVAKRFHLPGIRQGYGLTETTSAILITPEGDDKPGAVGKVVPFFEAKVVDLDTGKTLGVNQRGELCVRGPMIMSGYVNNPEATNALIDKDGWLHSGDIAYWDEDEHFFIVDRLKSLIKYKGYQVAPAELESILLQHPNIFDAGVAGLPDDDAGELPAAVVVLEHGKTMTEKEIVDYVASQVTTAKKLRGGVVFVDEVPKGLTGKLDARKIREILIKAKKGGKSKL
Chain of HttQ44-BodipyTMR (P42858 with tags, fused parts or gaps with the stated changes limits assumed): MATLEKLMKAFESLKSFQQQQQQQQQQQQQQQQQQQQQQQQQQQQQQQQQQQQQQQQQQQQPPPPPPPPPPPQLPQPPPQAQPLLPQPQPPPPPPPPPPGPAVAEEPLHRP
T2 sequence (P54252 with tags, fused parts or gaps with the stated changes): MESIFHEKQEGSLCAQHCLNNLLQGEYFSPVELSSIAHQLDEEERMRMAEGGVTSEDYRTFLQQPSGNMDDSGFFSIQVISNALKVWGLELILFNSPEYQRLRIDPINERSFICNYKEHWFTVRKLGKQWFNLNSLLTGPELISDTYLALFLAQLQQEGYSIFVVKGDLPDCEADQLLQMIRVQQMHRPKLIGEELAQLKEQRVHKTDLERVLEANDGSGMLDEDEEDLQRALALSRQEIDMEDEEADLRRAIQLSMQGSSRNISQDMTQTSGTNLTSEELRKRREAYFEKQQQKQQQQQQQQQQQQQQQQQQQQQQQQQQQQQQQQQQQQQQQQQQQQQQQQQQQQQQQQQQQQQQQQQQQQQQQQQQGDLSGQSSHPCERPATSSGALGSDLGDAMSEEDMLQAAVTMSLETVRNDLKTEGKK
T4 sequence (P54252 with tags, fused parts or gaps with the stated changes): as above

Molecule | Aβ40 aggregation (ThT fluorescence) [1] | luciferase refolding ([2]; NAC added to the Hsp70/Hsp40 system (3.2 μM/0.8 μM), no preincubation) | luciferase refolding ([2]; NAC alone, absence of Hsp70/Hsp40, luciferase 0.02 μM, equimolar NAC) | AtxQ78 aggregation [3] | Aβ40 fibril formation (electron microscopy) [4] | accumulation of PolyQ51 aggregates [5] | mHttQ51 aggregation ([6]; 5× molar excess, 3 μM mHttQ51, filter trap, SDS-insoluble aggregates) | identified intermolecular crosslinks to the C-terminal region of AtxQ78 close to the expanded PolyQ stretch [7] | Htt aggregation over time (fluorescence quenching) [8] | HttQ51 aggregation, titration ([6]; ApiCCT1-bNAC from 15 μM to 0.03 μM, Htt 3 μM, filter trap) | polyQ aggregation of huntingtin exon1 ([6]; system with purified components, listed as fused protein)
B1 | completely suppressed Aβ40 aggregation | did not enhance luciferase refolding | had no effect on luciferase refolding | delayed the aggregation of AtxQ78 | completely suppressed Aβ40 aggregation and fibril formation | strongly delayed the accumulation of PolyQ51 aggregates | effectively suppressed aggregation | 11 out of 18 | – | – | –
B2 | – | – | – | – | – | – | – | – | better and more stably suppresses Htt aggregation overtime compared to the ApiCCT1 and bNAC N-terminal domain individually | can suppress HttQ51 aggregation at sub-molar concentrations | works even more potently to inhibit huntingtin exon1 aggregation; also recorded: can suppress aggregation even at sub-molar ratios
